This is an account of results in publication PMC6366758 (2019).

The target in assay [1] is T1, Post-fusion F (human respiratory syncytial virus A2 …). The assay can be described thus: SPR. For orientation: SPR reads the build-up and loss of mass on a sensor chip optically.
Assay [2] addresses T1, Post-fusion F. Nature of the assay: SPR. This is another data set of the same source.

B1: Motavizumab (antibody, V domains shown)
VH: QVTLRESGPALVKPTQTLTLTCTFSGFSLSTAGMSVGWIRQPPGKALEWLADIWWDDKKHYNPSLKDRLTISKDTSKNQVVLKVTNMDPADTATYYCARDMIFNFYFDVWGQGTTVTVSS
VL: DIQMTQSPSTLSASVGDRVTITCSASSRVGYMHWYQQKPGKAPKLLIYDTSKLASGVPSRFSGSGSGTEFTLTISSLQPDDFATYYCFQGSGYPFTFGGGTKVEIK
Consider B1, for which the koff in assay [1] was determined as 1.44e-05 s⁻¹. For the same molecule, in assay [2], the Kd came to 0.04 nM.

B2: R4.C6 monoclonal antibody (antibody, V domains shown)
VH: EVQLQQSGPELVKPGASVKISCKASGYAFSNSWMSWVKQRPGKGLEWIGRLFPADGDITYNGHFKDKAALTADKSSNTAYIQLSSLTSEDSAVYFCARMDNSEVFWGQGTLVTVSA
VL: DILLTQSQKFMSTSVGDRVSITCKASQNVRTGVSWYQRKPGQSPKALIYLASNRHTGVPDRFTGRGSGTDFTLTISEVQSEDLADYFCLQHWTVPYTFGGGTKLEIK
Turning to B2, the koff in assay [1] amounted to 3.74e-05 s⁻¹.

One may read the koff as the first-order rate constant of dissociation. Usually Kd stands for the constant that tells how readily two partners part at equilibrium. Lower therefore signals a tighter complex.
